Where two headings read alike, the source gives them in different places.
Columns and labels:
[1] = molecular target: C. crescentus full-length DriD (C. crescentus); assay: SEC
[2] = molecular target: T1, DriD(Y168A-R178A-Y192A-R204A) (Caulobacter crescentus, UniProt Q9A999 5-331, Y172A;R182A;Y196A;R208A); assay: fluorescence polarization
T1 sequence: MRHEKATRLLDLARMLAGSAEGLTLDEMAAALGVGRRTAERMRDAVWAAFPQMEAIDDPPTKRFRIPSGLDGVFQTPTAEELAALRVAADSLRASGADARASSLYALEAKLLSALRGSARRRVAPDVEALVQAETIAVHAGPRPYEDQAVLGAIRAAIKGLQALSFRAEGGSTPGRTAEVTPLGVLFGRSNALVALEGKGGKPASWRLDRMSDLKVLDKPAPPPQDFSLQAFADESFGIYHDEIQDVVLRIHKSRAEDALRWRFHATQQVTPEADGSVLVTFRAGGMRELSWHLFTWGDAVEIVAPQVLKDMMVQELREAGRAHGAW

DriD(Y168A) = molecular target: T2, DriD(Y168A) (Caulobacter crescentus, UniProt Q9A999 5-331, Y172A); assay: fluorescence polarization
T2 sequence: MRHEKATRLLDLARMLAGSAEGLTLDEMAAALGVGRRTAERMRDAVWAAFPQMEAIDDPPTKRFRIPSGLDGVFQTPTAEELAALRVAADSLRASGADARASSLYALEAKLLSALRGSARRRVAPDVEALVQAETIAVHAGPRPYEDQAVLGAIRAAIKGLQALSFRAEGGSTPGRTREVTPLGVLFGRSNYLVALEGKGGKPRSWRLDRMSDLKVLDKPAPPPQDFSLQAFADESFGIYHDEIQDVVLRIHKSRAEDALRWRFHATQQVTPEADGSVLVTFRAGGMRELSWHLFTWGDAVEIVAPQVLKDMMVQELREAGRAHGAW

DriD(R176A-R178A) = molecular target: T3, DriD(R176A-R178A) (Caulobacter crescentus, UniProt Q9A999 5-331, R180A;R182A); assay: fluorescence polarization
T3 sequence: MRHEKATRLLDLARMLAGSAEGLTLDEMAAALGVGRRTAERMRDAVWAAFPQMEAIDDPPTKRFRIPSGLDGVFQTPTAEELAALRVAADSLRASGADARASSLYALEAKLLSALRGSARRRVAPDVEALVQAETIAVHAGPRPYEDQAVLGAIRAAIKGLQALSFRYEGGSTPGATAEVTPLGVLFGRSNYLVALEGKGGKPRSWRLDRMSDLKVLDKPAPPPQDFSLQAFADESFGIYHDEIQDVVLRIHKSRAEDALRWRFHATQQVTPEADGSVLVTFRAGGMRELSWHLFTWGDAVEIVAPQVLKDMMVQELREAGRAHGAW

[3] = molecular target: T1, DriD(Y168A-R178A-Y192A-R204A); assay: fluorescence polarization; remark: listed apart in the source

C. crescentus full-length DriD (natural protein)
stoichiometry N [1]: 2

B1: DriD operator (optimized) (dsDNA)
DNA 1: ATACGACCGTTTCTGTCGCA
DNA 2: TGCGACAGAAACGGTCGTAT
binding result [2]: no binding
Kd (DriD(Y168A)): 22.3 ± 7 nM

TAGTCTACT (ssDNA) [9mer ssDNA (F-labelled)]
binding result (DriD(R176A-R178A)): no binding
binding result [3]: no binding

— article PMC9186387
